Measurements from patent publication US20260193324A1.

Biological target: human GLP-1 receptor (GLP-1R) (human) (UniProt P43220)
Sequence of UniProt P43220 (P43220 24-463): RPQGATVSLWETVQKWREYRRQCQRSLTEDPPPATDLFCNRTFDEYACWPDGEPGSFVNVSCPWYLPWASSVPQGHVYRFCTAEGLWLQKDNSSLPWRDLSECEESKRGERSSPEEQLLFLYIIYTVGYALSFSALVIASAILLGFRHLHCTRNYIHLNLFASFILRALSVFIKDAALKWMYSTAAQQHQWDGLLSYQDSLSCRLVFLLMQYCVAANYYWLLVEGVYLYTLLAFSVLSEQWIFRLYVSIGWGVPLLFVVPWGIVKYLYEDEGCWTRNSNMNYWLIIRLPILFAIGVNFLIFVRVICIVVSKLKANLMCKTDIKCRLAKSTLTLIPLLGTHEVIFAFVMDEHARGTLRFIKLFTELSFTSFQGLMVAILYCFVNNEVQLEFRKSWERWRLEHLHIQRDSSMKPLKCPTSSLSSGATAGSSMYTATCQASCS

EC50 (read off the curve), 4 hr stimulation: 1 nM
Substance: GLP-1(7-37) peptide (from UniProt P01275 21-180)
